Measurements published in IntAct's records for PubMed 20643958.

B1: DNA primase large subunit (Homo sapiens), P49643-1 (parent)
chain: MEFSGRKWRKLRLAGDQRNASYPHCLQFYLQPPSENISLIEFENLAIDRVKLLKSVENLGVSYVKGTEQYQSKLESELRKLKFSYRENLEDEYEPRRRDHISHFILRLAYCQSEELRRWFIQQEMDLLRFRFSILPKDKIQDFLKDSQLQFEAISDEEKTLREQEIVASSPSLSGLKLGFESIYKIPFADALDLFRGRKVYLEDGFAYVPLKDIVAIILNEFRAKLSKALALTARSLPAVQSDERLQPLLNHLSHSYTGQDYSTQGNVGKISLDQIDLLSTKSFPPCMRQLHKALRENHHLRHGGRMQYGLFLKGIGLTLEQALQFWKQEFIKGKMDPDKFDKGYSYNIRHSFGKEGKRTDYTPFSCLKIILSNPPSQGDYHGCPFRHSDPELLKQKLQSYKISPGGISQILDLVKGTHYQVACQKYFEMIHNVDDCGFSLNHPNQFFCESQRILNGGKDIKKEPIQPETPQPKPSVQKTKDASSALASLNSSLEMDMEGLEDYFSEDS

Variants of: B1
Conditions: with rfa2_human RPA2, P15927
Chain of rfa2_human RPA2, P15927 (P15927 whole entry): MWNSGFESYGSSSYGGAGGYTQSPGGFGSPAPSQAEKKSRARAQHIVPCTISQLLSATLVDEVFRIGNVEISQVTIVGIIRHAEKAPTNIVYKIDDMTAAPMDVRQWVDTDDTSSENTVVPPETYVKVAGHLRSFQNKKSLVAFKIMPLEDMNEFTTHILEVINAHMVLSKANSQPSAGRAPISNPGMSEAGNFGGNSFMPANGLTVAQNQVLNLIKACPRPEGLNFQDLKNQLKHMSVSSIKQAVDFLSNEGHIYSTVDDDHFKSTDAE

effect of a mutation on the interaction	Variant
decreasing interaction	R296E
decreasing interaction	H299D
decreasing interaction	R302E

Variants of: B1
Conditions: with rfa2_human RPA2, P15927
Remark: another data set of the same source

effect of a mutation on the interaction	Variant
disrupting interaction	R302E
